Source: PMC9774334

What was measured:
purified protein [1] = substrate: C[C@@H]1O[C@@H](Oc2ccc([N+](=O)[O-])cc2)[C@@H](O)[C@H](O)[C@@H]1O; experiment: purified protein; conditions: McIlvaine buffer pH 5.5, 35 °C
purified protein [2] = substrate: O=[N+]([O-])c1ccc(O[C@@H]2O[C@@H](CO)[C@H](O)[C@@H](O)[C@@H]2O)cc1; experiment: purified protein; conditions: McIlvaine buffer pH 5.5, 35 °C

B1: ClAgl29A (Cecembia lonarensis LW9) (protein)
chain: QVQYNPEKPARPEDHKPFFYKYNTRQLYEKFSDDLMQRAANDRKEIEKINQLGKYKPKKQSLDEHEVPEWFRDAKLGIFLDWGPWSVPGYAPPGSEGDTGGSYPDWYEFLMDFTYKAYHDSIWGEDFRRDDFLPLLHGNNFDSEEYAELAVQAGAKYMVPFARHHAGWTMWESKYTFRNAVEMGPKRDILKELVEASRKRDLKFGFYFSIAEWEYPVITKERVSQWDPYEDMAIFHDGMGLIPRPVPLASYFPARHDRMISGKIPVKDYFGDYMMPLFKEGVDLFDPDLVWYDGGWGTPANSSRVPELSAYFYNQAEGRKEVVINNRAGAYLDDSNLLKFNEVLKSGEHDKLLELYMKAEQIGDYLTPEYSIGNVDINEPWEVCRSISPAFGFNWTDNEENSLSSKELVKMFVGIVANNGNLLLVINPDGSGKLSNVQKDRLLDLGQWLKVNGEGIYSTRPWEIQESEGNFFTKSKNGEFIYIHILDKEKTTIEVPNLNPKNKGAISILGSKEKVLWENSGPITRITIPESFKDERNWPNKYGFTLKVAVK
**Q.** What does the source list for B1?
**A.** Km (purified protein [1]): 279 ± 5 µM; kcat (purified protein [1]): 0.0658 ± 0.0008 s⁻¹; kcat/Km (purified protein [1]): 236 ± 5 M⁻¹ s⁻¹; Km (purified protein [2]): 2010 ± 260 µM; kcat (purified protein [2]): 2 ± 0.11 s⁻¹; kcat/Km (purified protein [2]): 1000 ± 80 M⁻¹ s⁻¹

B2: ClAgl29B (Cecembia lonarensis LW9) (protein)
chain: QENKEKDRTPSSKHLTDNILQPKRSSDFMAFKYEYSTVDLYREFSESIMDKARSEVEILESVNRQGRYKPNVESLKLHEVPEWFEDAKLGIFLDWGPWSVPGYAPLKGAEASTGGSYPDWYEFLMDNLYKEYHDEVWGADFRRDDFLPLLTGENFNSEEYMLLAVNSGAKYFVPFTKHHAGWTMWESEFTKRNAVEMGPGRDIYKELIEAGKKYDMKMGFYFSVSEWEYPVIVDQNLSQWDPVKNLAIFQDALGQIPRATPLASYFPALHDRMISGKIPVKDYFADYMIPSFKEAVDKYDPDLVWYDGGWGSPVSISRTMETSAYFYNQAEGKKDVVINNRAGSSLSEDDLIKVRDLMDSGKRDEAMKIYLSGQQLGDYGTPEFTIGDVDIQSKWEVCRSISPAFGYNWQDDEASSLSGEELIKLFVDIVANNGNLLLVISPDGSGKLPDIQKDRLLELGDWMKVNAESIHNTRPWKVQKENDKFFTKSKDGKSLFVHCTNWPGENLIINTPIEEGIKGIKLLGSDINLQFTKASNGNLEIPIPKDFQNNPSLISKYVWTFKIDLN
**Q.** What does the source list for B2?
**A.** Km (purified protein [1]): 240 ± 11 µM; kcat (purified protein [1]): 0.0844 ± 0.0019 s⁻¹; kcat/Km (purified protein [1]): 352 ± 7 M⁻¹ s⁻¹; Km (purified protein [2]): 1790 ± 180 µM; kcat (purified protein [2]): 7.76 ± 0.41 s⁻¹; kcat/Km (purified protein [2]): 4340 ± 220 M⁻¹ s⁻¹
